We go through one molecule from PMC2962642, “Familial Glucocorticoid Receptor Haploinsufficiency by Non-Sense Mediated mRNA Decay, Adrenal Hyperplasia and Apparent Mineralocorticoid Excess”.

This series concerns the target WT hGRalpha (glucocorticoid receptor) (Homo sapiens, UniProt P04150 1-777). As to the kind of experiment: EMSA; complex abolished by 50 ng unlabeled probe; 15 min at 25 C; 4.5% acrylamide/bisacrylamide (37:1) gel, 0.25x TBE (50 mM Tris, 50 mM boric acid, 1 mM EDTA); binding buffer and pH not stated (as in ref. 26). The note with it: protein: ivt; chain copies: 2; label: 32P-dCTP (Klenow fill-in); 5' overhangs AGCT, filled in by Klenow for the labeled probe. On the technique in general: Mobility shift assays separate free from complexed probe on a gel.

Chain of WT hGRalpha (glucocorticoid receptor) (P04150 whole entry): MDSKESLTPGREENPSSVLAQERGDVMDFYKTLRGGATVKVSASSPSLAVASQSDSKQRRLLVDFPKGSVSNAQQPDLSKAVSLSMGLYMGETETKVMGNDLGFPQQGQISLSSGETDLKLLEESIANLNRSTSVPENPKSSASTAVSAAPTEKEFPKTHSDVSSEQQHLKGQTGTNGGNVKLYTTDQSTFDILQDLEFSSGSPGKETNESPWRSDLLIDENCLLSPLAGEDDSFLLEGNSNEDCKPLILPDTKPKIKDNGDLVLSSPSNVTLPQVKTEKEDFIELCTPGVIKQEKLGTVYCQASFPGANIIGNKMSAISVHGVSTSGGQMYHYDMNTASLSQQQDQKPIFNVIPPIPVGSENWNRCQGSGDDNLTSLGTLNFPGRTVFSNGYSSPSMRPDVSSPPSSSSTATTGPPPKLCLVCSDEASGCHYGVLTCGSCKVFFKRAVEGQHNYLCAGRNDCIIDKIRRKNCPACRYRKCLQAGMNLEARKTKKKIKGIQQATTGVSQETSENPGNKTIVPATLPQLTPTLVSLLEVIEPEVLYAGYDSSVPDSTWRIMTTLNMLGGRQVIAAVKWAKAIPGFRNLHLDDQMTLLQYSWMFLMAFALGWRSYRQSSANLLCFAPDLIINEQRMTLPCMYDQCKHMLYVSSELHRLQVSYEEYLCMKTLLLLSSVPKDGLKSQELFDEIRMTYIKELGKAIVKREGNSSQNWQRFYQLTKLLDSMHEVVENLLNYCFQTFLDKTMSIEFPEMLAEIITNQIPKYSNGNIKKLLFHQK

B1: GRE consensus probe (dsDNA)
DNA 1: AGCTGCTCAGCTAGAACACTCTGTTCTCTACT
DNA 2: AGCTAGTAGAGAACAGAGTGTTCTAGCTAGC
As for B1, the binding result is recorded as “binds”.
